Measured values taken from US20170129967A1 (CHEMOTHERAPEUTISCHES FORSCHUNGSINSTITUT GEORG SPEYER HAUS, published 2017).

Target: human ErbB2 (HER2) expressed on cells (Renca-lacZ/ErbB2 murine renal cell carcinoma cells); MDA-MB453 human … (human, UniProt P04626 23-1255)
Assay: cell-based or functional assay

B1: chimeric antigen receptor (CAR) 5.28.z, on the surface of clonal NK-92/5.28.z cells (receptor)
chain: QVQLQQSGPELKKPGETVKISCKASGYPFTNYGMNWVKQAPGQGLKWMGWINTSTGESTFADDFKGRFDFSLETSANTAYLQINNLKSEDSATYFCARWEVYHGYVPYWGQGTTVTVSSGGGGSGGGGSGGGGSDIQLTQSHKFLSTSVGDRVSITCKASQDVYNAVAWYQQKPGQSPKLLIYSASSRYTGVPSRFTGSGSGPDFTFTISSVQAEDLAVYFCQQHFRTPFTFGSGTKLEIKALSNSIMYFSHFVPVFLPAKPTTTPAPRPPTPAPTIASQPLSLRPEACRPAAGGAVHTRGLDKPFWVLVVVGGVLACYSLLVTVAFIIFWVRSKRSRLLHSDYMNMTPRRPGPTRKHYQPYAPPRDFAAYRSRVKFSRSADAPAYQQGQNQLYNELNLGRREEYDVLDKRRGRDPEMGGKPRRKNPQEGLYNELQKDKMAEAYSEIGMKGERRRGKGHDGLYQGLSTATKDTYDALHMQALPPR
- specific lysis at an E/T ratio of 10:1 (NK-92/5.28.z irradiated with 10 Gy, MDA-MB453 target cells, 2 h co-incubation): 65 % specific lysis
